Laboratory results published in PMC5612097, “Discovery of a microbial transglutaminase enabling highly site-specific labeling of proteins” (The Journal of Biological Chemistry, 2017).
Where no end group is shown, it is not given here. The star is where a group is joined. Cbz = O=C(OCc1ccccc1)*

Tests used:
[1] = target: T1, KalbTG (Kutzneria viridogrisea, UniProt W5WHY8); experiment: peptide array transamidation, Cy5-streptavidin fluorescence; format: biochemical; conditions: 50 uM amine donor with 5-mer Gln peptides; 100 mM Tris-HCl, pH 8, 1 mM DTT, 37 °C, 45 min
T1 construct: gene KALB_7456; E. coli; predicted signal peptide removed; N-terminal 2x SlyD (E. coli) chaperone tag with factor Xa site (cut off for some applications), N-terminal MGGGSTTAQAAAVAAPTPR, C-terminal GGGS-His8
T1 sequence (W5WHY8 entry or part of it): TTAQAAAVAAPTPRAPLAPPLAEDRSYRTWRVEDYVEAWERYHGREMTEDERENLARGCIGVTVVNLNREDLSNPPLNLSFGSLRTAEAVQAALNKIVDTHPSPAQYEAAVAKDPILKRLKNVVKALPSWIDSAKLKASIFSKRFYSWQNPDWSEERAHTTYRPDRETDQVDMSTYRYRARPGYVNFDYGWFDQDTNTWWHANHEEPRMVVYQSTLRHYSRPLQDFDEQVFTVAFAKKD

[2] = target: microbial transglutaminase (MTG) from Streptomyces mobaraensis, engineered enzyme from Zedira (Streptomyces mobaraensis) (UniProt P81453)
[3] = target: microbial transglutaminase from Kutzneria albida (KalbTG) (Kutzneria albida DSM 43870)

For `NCCCCCNC(=O)CCCC[C@@H]1SC[C@@H]2NC(=O)N[C@@H]21` [N-(biotinyl)cadaverine], the “peptide array transamidation, Cy5-streptavidin fluorescence” value [1] was “N-(biotinyl)cadaverine (Zedira) was used as a substitute for a Lys substrate to biotinylate Gln peptides”.

Molecule Cbz-GGGYRYRQGGGG has a Km in the GLDH-coupled transglutaminase activity assay (37 °C, peptide 0-1 mM, 1 mM cadaverine as amine donor) [2] of 644 µM and a Km in the GLDH-coupled transglutaminase activity assay (37 °C, peptide 0-1 mM, 1 mM cadaverine as amine donor) [3] of 2150 µM.

With Cbz-GGGDYALQGGGG the Km in the GLDH-coupled transglutaminase activity assay (37 °C, peptide 0-1 mM, 1 mM cadaverine as amine donor) [2] was 847 µM.
